Residue numbers refer to the chain shown, from its start. Numbers in names are those of the source.
B1: human Spindly^2–359::Strep-tag II (N-terminal coiled-coil region) (domain or fragment, UniProt Q96EA4 2-359, looked up)
chain: EADIITNLRCRLKEAEEERLKAAQYGLQLVESQNELQNQLDKCRNEMMTMTESYEQEKYTLQREVELKSRMLESLSCECEAIKQQQKMHLEKLEEQLSRSHGQEVNELKTKIEKLKVELDEARLSEKQLKHQVDHQKELLSCKSEELRVMSERVQESMSSEMLALQIELTEMESMKTTLKEEVNELQYRQEQLELLITNLMRQVDRLKEEKEEREKEAVSYYNALEKARVANQDLQVQLDQALQQALDPNSKGNSLFAEVEDRRAAMERQLISMKVKYQSLKKQNVFNREQMQRMKLQIATLLQMKGSQTEFEQQERLLAMLEQKNGEIKHLLGEIRNLEKFKNLYDSMESKPSVDSG
B2: GST::LIC1::6×His C-terminal region (residues 388–523) (domain or fragment, human, UniProt Q9Y6G9 388-523, looked up)
chain: PTAAGRPVDASPRVPGGSPRTPNRSVSSNVASVSPIPAGSKKIDPNMKAGATSEGVLANFFNSLLSKKTGSPGGPGVSGGSPAGGAGGGSSGLPPSTKKSGQKPVLDVHAELDRITRKPVTVSPTTPTSPTEGEAS
B3: human Spindly^2–359 F258A::Strep-tag II (domain or fragment, UniProt Q96EA4 2-359, looked up)
chain: B1 chain with F257A
B4: human BICD2^2–422::Strep-tag II (domain or fragment, UniProt Q8TD16 2-422, looked up)
chain: SAPSEEEEYARLVMEAQPEWLRAEVKRLSHELAETTREKIQAAEYGLAVLEEKHQLKLQFEELEVDYEAIRSEMEQLKEAFGQAHTNHKKVAADGESREESLIQESASKEQYYVRKVLELQTELKQLRNVLTNTQSENERLASVAQELKEINQNVEIQRGRLRDDIKEYKFREARLLQDYSELEEENISLQKQVSVLRQNQVEFEGLKHEIKRLEEETEYLNSQLEDAIRLKEISERQLEEALETLKTEREQKNSLRKELSHYMSINDSFYTSHLHVSLDGLKFSDDAAEPNNDAEALVNGFEHGGLAKLPLDNKTSTPKKEGLAPPSPSLVSDLLSELNISEIQKLKQQLMQMEREKAGLLATLQDTQKQLEHTRGSLSEQQEKVTRLTENLSALRRLQASKERQTALDNEKDRDSHEDG

Tests used:
[1] = biological target: GST::LIC1::6×His, full-length dynein light intermediate chain 1 (residues 1–523) (human, UniProt Q9Y6G9 1-523); assay: pull-down
[2] = biological target: B1; assay: pull-down

Question: Does B1 bind [1]?
Answer: Result: binds

Question: Does B2 bind [2]?
Answer: Result: binds

Question: Does B3 bind [1]?
Answer: Result: binds

Question: Does B4 bind [1]?
Answer: Result: binds
